Experimental data taken from the supplement of paper PMC7877785.
± gives the uncertainty stated by the source.

Assay: self-splicing fitness, log relative to wild type (ln ratio); higher = more splicing; Tetrahymena group I intron in knt gene, E. coli kanamycin selection, DiMSum; sequences stand for … in CUCUCU…GGAGGGAAAAGUUAUCAGGCAUGCACCUGGUAGCUAGUCUUUAAACCAAUAGAUUGCAUCGGUUUAAAAGGCAAGACCGUCAAAUUGCGGGAAAGGGGUCAACAGCCGUUCAGUACCAAGUCUCAGGGGAAACUUUGAGAUGGCCUUGCAAAGGGUAUGGUAAUAAGCUGACGGACAUGGUCCUAACCACGCAGCCAAGUCCUAAGUCAACAGAUCUUCUGUUGAUAUGGAUGCAGUUCACAGACUAAAUGUCGGUCGGGGAAGAUGUAUUCUUCUCAUAAGAUAUAGUCGGACCUCUCCUUAAUGGGAGCUAGCGGAUGAAGUGAUGCAACACUGGAGCCGCUGGGAACUAAUUUGUAUGCGAAAGUAUAUUGAUUAGUUUUGGAGUACUCGUGGUCG
Outline: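 Pooled colonies went to amplicon sequencing on an Illumina HiSeq 2500 after six replicate transformations. The plates were LB agar with 100 μg/mL carbenicillin, 50 μM IPTG and 0.2% rhamnose, with or without 25 μg/mL kanamycin, incubated overnight at 37°C or 30°C. The E. coli BL21(DE3) library had all eight P1ex-region intron nucleotides randomised, the intron placed in the knt kanamycin-resistance gene on pET-22b(+). DiMSum fitness is the error-weighted combination of replicate fold changes, kanamycin against none, normalised to wild type.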

| Sequence | self-splicing fitness (ln) (30 °C) | self-splicing fitness (ln) (37 °C) |
| --- | --- | --- |
| UCGAAGCAAUAUUACGCGAC | -3.47 ± 0.25 | -2.2 ± 0.26 |
| ACCAAGCAAUAUUACGGCAA | -0.915 ± 0.08 | -0.348 ± 0.099 |
| UCUCAGCAAUAUUACGCGUC | -3.62 ± 0.27 | -2.81 ± 0.29 |
| ACUCAGCAAUAUUACGGAGG | -2.28 ± 0.13 | -1.35 ± 0.17 |
| AAAUAGCAAUAUUACGUCAC | -4.4 ± 0.42 | -2.53 ± 0.28 |
| UCACAGCAAUAUUACGGCAC | -2.93 ± 0.27 | -2.49 ± 0.31 |
| UACGAGCAAUAUUACGACCA | -1.71 ± 0.42 | – |
| CCUUAGCAAUAUUACGACUA | – | -2.23 ± 0.5 |
| UCUAAGCAAUAUUACGUCUG | -1.72 ± 0.16 | -1.18 ± 0.19 |
| GCGGAGCAAUAUUACGGUAA | -3.29 ± 0.26 | -2.7 ± 0.31 |
| UAGAAGCAAUAUUACGACUC | -0.192 ± 0.12 | -0.013 ± 0.16 |
| AGUUAGCAAUAUUACGGGGG | -2.04 ± 0.27 | -1.38 ± 0.31 |
| CCCAAGCAAUAUUACGCGCC | – | -1.59 ± 0.34 |
| CGCGAGCAAUAUUACGUCUA | -1.42 ± 0.17 | -0.973 ± 0.26 |
| CAUCAGCAAUAUUACGCGAC | -4.17 ± 0.29 | -2.92 ± 0.22 |
| CUUUAGCAAUAUUACGCGGA | -2.48 ± 0.27 | -2.81 ± 0.32 |
| CCGUAGCAAUAUUACGCGUG | -2.72 ± 0.15 | -1.22 ± 0.12 |
| GGCUAGCAAUAUUACGUUCU | -0.249 ± 0.082 | -0.358 ± 0.1 |
| AGUAAGCAAUAUUACGUGUC | -3.49 ± 0.21 | -2.24 ± 0.2 |
| AACCAGCAAUAUUACGUCUA | -0.091 ± 0.062 | -0.6 ± 0.067 |
| CGAAAGCAAUAUUACGAAAC | -2.85 ± 0.19 | -2.14 ± 0.21 |
| AUCCAGCAAUAUUACGGCGU | -0.0553 ± 0.058 | 0.269 ± 0.07 |
| CCCAAGCAAUAUUACGAACG | -3.72 ± 0.25 | -3.46 ± 0.2 |
| GUAUAGCAAUAUUACGUUAC | -3.43 ± 0.41 | – |
| CACGAGCAAUAUUACGGAAG | -3.54 ± 0.21 | -2.32 ± 0.2 |

| Sequence | self-splicing fitness (ln) (30 °C) | self-splicing fitness (ln) (37 °C) |
| --- | --- | --- |
| GUCCAGCAAUAUUACGUUCG | -1.26 ± 0.055 | -0.749 ± 0.079 |
| GUUCAGCAAUAUUACGCGGA | -4.19 ± 0.42 | -2.54 ± 0.23 |
| GAGCAGCAAUAUUACGUAGC | -0.99 ± 0.11 | -1.65 ± 0.13 |
| CCAAAGCAAUAUUACGGGCG | -1.31 ± 0.065 | -0.301 ± 0.094 |
| GGCCAGCAAUAUUACGUGAA | -1.67 ± 0.066 | -0.271 ± 0.077 |
| UGCUAGCAAUAUUACGCUUC | -1.65 ± 0.17 | -0.347 ± 0.28 |
| GUCGAGCAAUAUUACGUCCG | -4 ± 0.43 | -0.959 ± 0.3 |
| CUUUAGCAAUAUUACGAGCA | -3.14 ± 0.25 | -3.05 ± 0.3 |
| CUCCAGCAAUAUUACGACCA | – | -1.37 ± 0.41 |
| CUAGAGCAAUAUUACGGCAC | – | -0.856 ± 0.49 |
| AACUAGCAAUAUUACGACGA | -0.137 ± 0.066 | -0.576 ± 0.074 |
| UUCCAGCAAUAUUACGUUAU | -3.08 ± 0.12 | -1.95 ± 0.15 |
| GGUCAGCAAUAUUACGUCUA | -0.0881 ± 0.073 | 0.0699 ± 0.078 |
| GAAAAGCAAUAUUACGGUCC | -1.8 ± 0.23 | -0.588 ± 0.17 |
| CGGCAGCAAUAUUACGCUCA | -0.116 ± 0.15 | -0.137 ± 0.16 |
| AAUCAGCAAUAUUACGGUGG | -1.14 ± 0.056 | -0.718 ± 0.076 |
| UCCUAGCAAUAUUACGGAGC | -3.26 ± 0.29 | -1.98 ± 0.18 |
| CCAUAGCAAUAUUACGCGAU | -2.56 ± 0.27 | -2.91 ± 0.43 |
| AUCGAGCAAUAUUACGGUGG | – | -2.04 ± 0.36 |
| UGAUAGCAAUAUUACGGCGA | -0.745 ± 0.093 | -0.477 ± 0.13 |
| AAGUAGCAAUAUUACGUGCA | -0.781 ± 0.074 | -0.196 ± 0.098 |
| GCUAAGCAAUAUUACGAUCU | -0.886 ± 0.13 | 0.178 ± 0.14 |
| UGCAAGCAAUAUUACGCUAA | -2.73 ± 0.17 | 0.000151 ± 0.11 |
| UUUUAGCAAUAUUACGGAUA | -1.07 ± 0.33 | -1.21 ± 0.4 |
| UCACAGCAAUAUUACGUAAU | -3.25 ± 0.21 | -2.54 ± 0.29 |
